Experimental data: patent publication EP1313853B1

Target: Fas (Apo-1, CD95) (human) (UniProt P25445)
Assay: cell-based or functional assay

Sequence of UniProt P25445 (P25445 26-335): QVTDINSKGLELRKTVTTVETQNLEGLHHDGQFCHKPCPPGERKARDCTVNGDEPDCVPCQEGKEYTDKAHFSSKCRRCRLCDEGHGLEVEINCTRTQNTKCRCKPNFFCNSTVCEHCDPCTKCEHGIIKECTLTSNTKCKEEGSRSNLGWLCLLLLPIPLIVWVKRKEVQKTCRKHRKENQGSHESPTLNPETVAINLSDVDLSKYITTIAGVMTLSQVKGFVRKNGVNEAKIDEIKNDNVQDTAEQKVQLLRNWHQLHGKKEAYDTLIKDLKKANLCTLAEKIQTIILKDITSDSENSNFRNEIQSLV

% INHIBITION of Jurkat human leukemia T cell proliferation (MTT), 0.02 µg/ml antibody, no sequence: 16%
% INHIBITION of Jurkat human leukemia T cell proliferation (MTT), 0.2 µg/ml antibody, no sequence: 33%
% INHIBITION of UMUC-3 bladder cancer cell proliferation (MTT), 0.02 µg/ml antibody, no sequence: 7%
% INHIBITION of UMUC-3 bladder cancer cell proliferation (MTT), 0.2 µg/ml antibody, no sequence: 17%
Substance: agonistic anti-Fas monoclonal antibodies (clone CH-11: Coulter-Immunotech, Marseille, France) (antibody)
